# Test results as given in article PMC7082571, “Two New Unspecific Peroxygenases from Heterologous Expression of Fungal Genes in Escherichia coli” (Applied and Environmental Microbiology, 2020).
# Substitutions are numbered along the chain they refer to.
# T1: rCviUPO (C. virescens UPO) (Achaetomiella virescens, UniProt Z9FBJ6W4Y2)
# T1 construct: codon-optimised gene in pET23a, untagged, soluble in E. coli C41; 29,616 Da calculated, 52 kDa by SEC (most probably dimer); heme-thiolate
# T1 sequence (Z9FBJ6W4Y2 1-226): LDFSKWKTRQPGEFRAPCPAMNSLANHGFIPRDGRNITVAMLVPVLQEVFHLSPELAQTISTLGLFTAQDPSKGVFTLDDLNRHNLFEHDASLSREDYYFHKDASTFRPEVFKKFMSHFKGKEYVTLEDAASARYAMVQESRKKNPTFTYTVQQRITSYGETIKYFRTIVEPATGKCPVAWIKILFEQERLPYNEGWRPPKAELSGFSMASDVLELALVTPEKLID
# T2: rCviUPO (C. virescens UPO) (Achaetomiella virescens, UniProt Z9FBJ6W4Y2, F87L, form not given)
# T2 construct: codon-optimised gene in pET23a, untagged, soluble in E. coli C41; 29,616 Da calculated, 52 kDa by SEC (most probably dimer); heme-thiolate
# T2 sequence (Z9FBJ6W4Y2 1-226 F87L): T1 sequence (Z9FBJ6W4Y2 1-226) with F87L
# T3: rCviUPO (C. virescens UPO) (Achaetomiella virescens, UniProt Z9FBJ6W4Y2, T157F, form not given)
# T3 construct: codon-optimised gene in pET23a, untagged, soluble in E. coli C41; 29,616 Da calculated, 52 kDa by SEC (most probably dimer); heme-thiolate
# T3 sequence (Z9FBJ6W4Y2 1-226 T157F): T1 sequence (Z9FBJ6W4Y2 1-226) with T157F
# B1: rDcaUPO (D. caldariorum UPO) (Daldinia caldariorum) (protein)
# chain: MAPWKAPGPDDVRGPCPMLNTLANHGFLPHDGKNIDVNTTVNALSSALNLDDELSRDLHTFAVTTNPQPNATWFSLNHLSRHNVLEHDASLSRQDAYFGPPDVFNAAVFNETKAYWTGDIINFQMAANALTARLMTSNLTNPEFSMSQLGRGFGLGETVCYVTILGSKETRTVPKAFVEYLFENERLPYELGFKKMKSALTEDELTTMMGEIYSLQHLPESFTKPFAKRSEAPFEKRAEKRCPFH
# notes: codon-optimised gene in pET28, poly-His tag (thrombin-cleavable, no effect on activity), soluble in E. coli C41; 29,609 Da calculated, 55 kDa by SEC (most probably dimer)
# B2: recombinant Collariella virescens unspecific peroxygenase (enzyme)
# chain: ALDFSKWKTRQPGEFRAPCPAMNSLANHGFIPRDGRNITVAMLVPVLQEVFHLSPELAQTISTLGLFTAQDPSKGVFTLDDLNRHNLFEHDASLSREDYYFHKDASTFRPEVFKKFMSHFKGKEYVTLEDAASARYAMVQESRKKNPTFTYTVQQRITSYGETIKYFRTIVEPATGKCPVAWIKILFEQERLPYNEGWRPPKAELSGFSMASDVLELALVTPEKLID
# Experiments:
# [1] = biological target: T4, rDcaUPO (D. caldariorum UPO) (Daldinia caldariorum, UniProt A0AAN0NP18); test: veratraldehyde formation at […] nm, substrate inhibition model; type: biochemical; settings: 1 mM H2O2, 0.1 M acetate, optimal pH (Fig. S6), 25°C
# T4 construct: codon-optimised gene in pET28, poly-His tag (thrombin-cleavable, no effect on activity), soluble in E. coli C41; 29,609 Da calculated, 55 kDa by SEC (most probably dimer)
# [2] = biological target: T1, rCviUPO (C. virescens UPO); test: veratraldehyde formation at […] nm; type: biochemical; settings: 1 mM H2O2, 0.1 M acetate, optimal pH (Fig. S6), 25°C
# [3] = biological target: T2, rCviUPO (C. virescens UPO); test: veratraldehyde formation at […] nm; type: biochemical; settings: 1 mM H2O2, 0.1 M acetate, optimal pH (Fig. S10), 25°C
# [4] = biological target: T3, rCviUPO (C. virescens UPO); test: veratraldehyde formation at […] nm; type: biochemical; settings: 1 mM H2O2, 0.1 M acetate, optimal pH (Fig. S10), 25°C
# [5] = biological target: recombinant Daldinia caldariorum unspecific peroxygenase (Daldinia caldariorum); test: SEC; Sepharose 12 10/300 column, 10 mM Tris (pH 7.4) with 0.15 M NaCl, calibrated with ferritin, aldolase, bovine serum albumin, ovalbumin, carbonic anhydrase and aprotinin; native mass compared with SDS-PAGE under reducing conditions
# [6] = biological target: T1, rCviUPO (C. virescens UPO); test: benzaldehyde formation at […] nm, Hill fit; type: biochemical; settings: 1 mM H2O2, 0.1 M Tris, optimal pH (Fig. S6), 25°C; sigmoidal, nH 1.6 ± 0.2
# [7] = biological target: T4, rDcaUPO (D. caldariorum UPO); test: benzaldehyde formation at […] nm, substrate inhibition model; type: biochemical; settings: 1 mM H2O2, 0.1 M Tris, optimal pH (Fig. S6), 25°C
# [8] = biological target: T3, rCviUPO (C. virescens UPO); test: benzaldehyde formation at […] nm; type: biochemical; settings: 1 mM H2O2, 0.1 M Tris, optimal pH (Fig. S10), 25°C
# [9] = biological target: T2, rCviUPO (C. virescens UPO); test: benzaldehyde formation at […] nm; type: biochemical; settings: 1 mM H2O2, 0.1 M Tris, optimal pH (Fig. S10), 25°C
# purified protein [10] = substrate: COc1ccc(CO)cc1OC; test: purified protein; type: biochemical, Daldinia caldariorum; settings: 1 mM H2O2, 0.1 M acetate, optimal pH (Fig. S6), 25°C
# purified protein [11] = substrate: CCn1c(=NN=c2sc3cc(S(=O)(=O)O)ccc3n2CC)sc2cc(S(=O)(=O)O)ccc21; test: purified protein; type: biochemical, Daldinia caldariorum; settings: 1 mM H2O2, 0.1 M acetate, optimal pH (Fig. S6), 25°C
# purified protein [12] = substrate: c1ccc2ccccc2c1; test: purified protein; type: biochemical, Daldinia caldariorum; settings: 1 mM H2O2, 0.1 M tartrate with 5% ethanol, optimal pH (Fig. S6), 25°C, Methods say Hill fit, Results say Michaelis-Menten
# purified protein [13] = substrate: OCc1ccccc1; test: purified protein; type: biochemical, Daldinia caldariorum; settings: 1 mM H2O2, 0.1 M Tris, optimal pH (Fig. S6), 25°C
# [14] = biological target: the molecule itself; test: SEC; Sepharose 12 10/300 column, 10 mM Tris (pH 7.4) with 0.15 M NaCl, calibrated with ferritin, aldolase, bovine serum albumin, ovalbumin, carbonic anhydrase and aprotinin; native mass compared with SDS-PAGE under reducing conditions
molecule,measurement,setting,value
COc1ccc(CO)cc1OC [veratryl alcohol],Ki (μM),[1],"45,400 ± 7,000 μM"
same,Km,[2],2.94 mM
same,Km,[3],1.15 mM
same,Km,[4],3.97 mM
recombinant Daldinia caldariorum unspecific peroxygenase (enzyme),stoichiometry N,[5],2
OCc1ccccc1 [benzyl alcohol],Km,[6],7.1 mM
same,Ki (μM),[7],"9,280 ± 2,270 μM"
same,Km,[8],1.87 mM
same,Km,[9],623 ± 111 µM
B1,Km,purified protein [10],160 ± 22 µM
same,kcat,purified protein [10],2.39 ± 0.09 s⁻¹
same,kcat/Km,purified protein [10],14800 ± 2100 M⁻¹ s⁻¹
same,Km,purified protein [11],59 ± 6 µM
same,kcat,purified protein [11],6.73 ± 0.14 s⁻¹
same,kcat/Km,purified protein [11],114000 ± 10500 M⁻¹ s⁻¹
same,Km,purified protein [12],332 ± 81 µM
same,kcat,purified protein [12],22.1 ± 1.92 s⁻¹
same,kcat/Km,purified protein [12],66800 ± 17300 M⁻¹ s⁻¹
same,Km,purified protein [13],179 ± 36 µM
same,kcat,purified protein [13],16.1 ± 1.19 s⁻¹
same,kcat/Km,purified protein [13],90000 ± 19000 M⁻¹ s⁻¹
B2,stoichiometry N,[14],2
